In patent US20220249621A1 one finds fold decrease in Ki67 expressing Tregs (flow cytometry) data, which are given here for one substance.

This experiment has as its target EphB4 on CD4+ T cells isolated from the spleens of tumor-bearing mice (mouse) (UniProt P54761). The experiment is described as follows: cell-based or functional assay.
UniProt P54761, sequence (P54761 16-987): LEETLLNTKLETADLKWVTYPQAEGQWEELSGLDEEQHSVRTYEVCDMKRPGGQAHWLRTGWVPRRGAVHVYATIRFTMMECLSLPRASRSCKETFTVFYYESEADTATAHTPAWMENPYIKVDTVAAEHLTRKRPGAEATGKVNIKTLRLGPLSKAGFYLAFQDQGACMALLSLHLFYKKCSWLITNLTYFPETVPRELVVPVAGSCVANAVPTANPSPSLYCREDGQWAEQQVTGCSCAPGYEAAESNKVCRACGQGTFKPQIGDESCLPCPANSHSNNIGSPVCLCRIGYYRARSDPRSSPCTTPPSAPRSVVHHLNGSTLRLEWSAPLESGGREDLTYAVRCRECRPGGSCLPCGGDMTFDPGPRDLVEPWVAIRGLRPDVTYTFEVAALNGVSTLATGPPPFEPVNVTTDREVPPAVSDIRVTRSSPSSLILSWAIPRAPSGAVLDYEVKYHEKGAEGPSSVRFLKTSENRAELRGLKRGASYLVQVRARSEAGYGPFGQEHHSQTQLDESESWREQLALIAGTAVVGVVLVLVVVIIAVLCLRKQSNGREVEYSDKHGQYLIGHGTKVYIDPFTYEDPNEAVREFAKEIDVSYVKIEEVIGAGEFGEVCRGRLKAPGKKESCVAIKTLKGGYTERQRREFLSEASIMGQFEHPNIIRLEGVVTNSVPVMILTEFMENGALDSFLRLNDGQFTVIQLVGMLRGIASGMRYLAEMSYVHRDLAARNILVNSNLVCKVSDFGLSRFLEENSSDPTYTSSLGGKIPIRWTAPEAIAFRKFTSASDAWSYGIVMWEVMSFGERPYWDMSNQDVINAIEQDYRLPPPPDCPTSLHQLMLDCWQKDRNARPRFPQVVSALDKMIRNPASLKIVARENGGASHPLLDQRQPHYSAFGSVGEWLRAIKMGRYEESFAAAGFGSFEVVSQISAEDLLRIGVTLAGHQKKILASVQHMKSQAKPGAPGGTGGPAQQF

With recombinant ephrin-B2-Fc (Fc fusion), the fold decrease in Ki67 expressing Tregs (flow cytometry) is 1.7 fold.
